From paper PMC9636267 (2022)
Like-named read-outs stand apart in the source and are kept apart here.

B3: HCoV-229E S ectodomain (17–1115 aa), 229E S trimer (domain or fragment)
chain: QTTNGLNTSYSVCNGCVGYSENVFAVESGGYIPSDFAFNNWFLLTNTSSVVDGVVRSFQPLLLNCLWSVSGLRFTTGFVYFNGTGRGDCKGFSSDVLSDVIRYNLNFEENLRRGTILFKTSYGVVVFYCTNNTLVSGDAHIPFGTVLGNFYCFVNTTIGNETTSAFVGALPKTVREFVISRTGHFYINGYRYFTLGNVEAVNFNVTTAETTDFCTVALASYADVLVNVSQTSIANIIYCNSVINRLRCDQLSFDVPDGFYSTSPIQSVELPVSIVSLPVYHKHTFIVLYVDFKPQSGGGKCFNCYPAGVNITLANFNETKGPLCVDTSHFTTKYVAVYANVGRWSASINTGNCPFSFGKVNNFVKFGSVCFSLKDIPGGCAMPIVANWAYSKYYTIGSLYVSWSDGDGITGVPQPVEGVSSFMNVTLDKCTKYNIYDVSGVGVIRVSNDTFLNGITYTSTSGNLLGFKDVTKGTIYSITPCNPPDQLVVYQQAVVGAMLSENFTSYGFSNVVELPKFFYASNGTYNCTDAVLTYSSFGVCADGSIIAVQPRNVSYDSVSAIVTANLSIPSNWTTSVQVEYLQITSTPIVVDCSTYVCNGNVRCVELLKQYTSACKTIEDALRNSARLESADVSEMLTFDKKAFTLANVSSFGDYNLSSVIPSLPTSGSRVAGRSAIEDILFSKLVTSGLGTVDADYKKCTKGLSIADLACAQYYNGIMVLPGVADAERMAMYTGSLIGGIALGGLTSAVSIPFSLAIQARLNYVALQTDVLQENQKILAASFNKAMTNIVDAFTGVNDAITQTSQALQTVATALNKIQDVVNQQGNSLNHLTSQLRQNFQAISSSIQAIYDRLDTIQADQQVDRLITGRLAALNVFVSHTLTKYTEVRASRQLAQQKVNECVKSQSKRYGFCGNGTHIFSIVNAAPEGLVFLHTVLLPTQYKDVEAWSGLCVDGTNGYVLRQPNLALYKEGNYYRITSRIMFEPRIPTMADFVQIENCNVTFVNISRSELQTIVPEYIDVNKTLQELSYKLPNYTVPDLVVEQYNQTILNLTSEISTLENKSAELNYTVQKLQTLIDNINSTLVDLKWLNRVETYIKWP

How the values were obtained:
Assay in all cases: SPR
[1] = target: B3
[2] = target: T1, HCoV-229E S1 subunit (17–560 aa) (human coronavirus 229E, UniProt P15423 17-560)
T1 chain: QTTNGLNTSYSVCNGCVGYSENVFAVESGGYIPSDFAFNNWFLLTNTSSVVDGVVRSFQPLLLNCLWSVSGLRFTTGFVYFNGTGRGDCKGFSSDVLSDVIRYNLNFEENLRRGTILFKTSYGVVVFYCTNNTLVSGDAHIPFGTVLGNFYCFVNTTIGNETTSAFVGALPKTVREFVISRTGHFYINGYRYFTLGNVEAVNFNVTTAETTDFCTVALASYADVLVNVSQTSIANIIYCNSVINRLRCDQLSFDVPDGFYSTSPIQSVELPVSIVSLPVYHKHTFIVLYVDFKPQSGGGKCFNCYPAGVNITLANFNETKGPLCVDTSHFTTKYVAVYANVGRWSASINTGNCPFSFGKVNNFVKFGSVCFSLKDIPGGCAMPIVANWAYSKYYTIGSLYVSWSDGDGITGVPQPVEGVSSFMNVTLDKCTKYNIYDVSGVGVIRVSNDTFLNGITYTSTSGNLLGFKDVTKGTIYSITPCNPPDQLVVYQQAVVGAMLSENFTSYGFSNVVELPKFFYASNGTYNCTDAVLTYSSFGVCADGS

[3] = target: T2, HCoV-229E RBD (294–435 aa) (human coronavirus 229E, UniProt P15423 294-435)
T2 chain: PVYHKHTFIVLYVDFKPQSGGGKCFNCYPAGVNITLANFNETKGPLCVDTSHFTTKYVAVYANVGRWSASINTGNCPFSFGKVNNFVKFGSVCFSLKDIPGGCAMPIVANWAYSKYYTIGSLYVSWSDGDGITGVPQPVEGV

[4] = target: B3
[5] = target: T1, HCoV-229E S1 subunit (17–560 aa)
[6] = target: T2, HCoV-229E RBD (294–435 aa)
[7] = target: B3
[8] = target: T2, HCoV-229E RBD (294–435 aa)
[9] = target: B3
[10] = target: T2, HCoV-229E RBD (294–435 aa)
[11] = target: B3
[12] = target: T2, HCoV-229E RBD (294–435 aa)
R07 [13] = target: R07
S15 [14] = target: S15
R17 [15] = target: R17
S10 [16] = target: S10
R14 [17] = target: R14
S02 [18] = target: S02
S08 [19] = target: S08
R10 [20] = target: R10
R07 [21] = target: R07; remark: listed apart in the source
S15 [22] = target: S15; remark: listed apart in the source
R17 [23] = target: R17; remark: listed apart in the source
S10 [24] = target: S10; remark: listed apart in the source
R14 [25] = target: R14; remark: listed apart in the source
S02 [26] = target: S02; remark: listed apart in the source
S08 [27] = target: S08; remark: listed apart in the source
R10 [28] = target: R10; remark: listed apart in the source

B1: Fab C04 (Fab, V domains shown)
VH: EVQLVESGGGLVQPGGSLRLSCAASGFNISSSYIHWVRQAPGKGLEWVASIYSSYGYTYYADSVKGRFTISADTSKNTAYLQMNSLRAEDTAVYYCARWWASVGGAGGGLDYWGQGTLVTVSS
VL: DIQMTQSPSSLSASVGDRVTITCRASQSVSSAVAWYQQKPGKAPKLLIYSASSLYSGVPSRFSGSRSGTDFTLTISSLQPEDFATYYCQQGYGWLITFGQGTKVEIK
koff [1]: 0.0064 s⁻¹
koff [2]: 0.007 s⁻¹
koff [3]: 0.0055 s⁻¹
Kd [4]: 4.4 nM
Kd [5]: 7.3 nM
Kd [6]: 2.9 nM

B2: Fab S11 (Fab, V domains shown)
VH: EVQLVESGGGLVQPGGSLRLSCAASGFNISSSYIHWVRQAPGKGLEWVASIYSSYGYTYYADSVKGRFTISADTSKNTAYLQMNSLRAEDTAVYYCARWWITFGGAGGGLDYWGQGTLVTVSS
VL: DIQMTQSPSSLSASVGDRVTITCRASQSVSSAVAWYQQKPGKAPKLLIYSASSLYSGVPSRFSGSRSGTDFTLTISSLQPEDFATYYCQQGYAWRNTFGQGTKVEIK
Kd [7]: 0.4 nM
Kd [8]: 0.2 nM
Kd [9]: 0.38 nM
Kd [10]: 0.21 nM
koff [11]: 0.00054 s⁻¹
koff [12]: 0.00081 s⁻¹

B3
koff (R07 [13]): 0.0011 s⁻¹
Kd (S15 [14]): 0.44 nM
koff (S15 [14]): 0.00098 s⁻¹
koff (R17 [15]): 0.0024 s⁻¹
Kd (S10 [16]): 0.28 nM
koff (S10 [16]): 0.0018 s⁻¹
koff (R14 [17]): 0.0039 s⁻¹
Kd (S02 [18]): 0.75 nM
koff (S02 [18]): 0.0035 s⁻¹
koff (S08 [19]): 0.0054 s⁻¹
Kd (R10 [20]): 0.43 nM
koff (R10 [20]): 0.0012 s⁻¹
Kd (R07 [21]): 2 nM
Kd (S15 [22]): 0.4 nM
Kd (R17 [23]): 2.4 nM
Kd (S10 [24]): 0.3 nM
Kd (R14 [25]): 2.7 nM
Kd (S02 [26]): 0.8 nM
Kd (S08 [27]): 2.4 nM
Kd (R10 [28]): 0.4 nM
